# Experiments:
# [1] = tested on: GST-PKBα (full length human protein kinase Bα with N-terminal glutathione S-transferase, from unstimulated 293 cells) [GST: P08515]
# [2] = molecular target: HA-PKBα (haemagglutinin epitope-tagged human PKBα expressed in 293 cells) (UniProt P31749)
# [3] = molecular target: GST-ΔPH-PKBα (residues 118-479 of human PKBα, lacking the PH domain) (UniProt P31749)
# GST-ΔPH-PKBα (residues 118-479 of human PKBα, lacking the PH domain), sequence (P31749 whole entry, looked up, stated change not applied, the tested form may be a part): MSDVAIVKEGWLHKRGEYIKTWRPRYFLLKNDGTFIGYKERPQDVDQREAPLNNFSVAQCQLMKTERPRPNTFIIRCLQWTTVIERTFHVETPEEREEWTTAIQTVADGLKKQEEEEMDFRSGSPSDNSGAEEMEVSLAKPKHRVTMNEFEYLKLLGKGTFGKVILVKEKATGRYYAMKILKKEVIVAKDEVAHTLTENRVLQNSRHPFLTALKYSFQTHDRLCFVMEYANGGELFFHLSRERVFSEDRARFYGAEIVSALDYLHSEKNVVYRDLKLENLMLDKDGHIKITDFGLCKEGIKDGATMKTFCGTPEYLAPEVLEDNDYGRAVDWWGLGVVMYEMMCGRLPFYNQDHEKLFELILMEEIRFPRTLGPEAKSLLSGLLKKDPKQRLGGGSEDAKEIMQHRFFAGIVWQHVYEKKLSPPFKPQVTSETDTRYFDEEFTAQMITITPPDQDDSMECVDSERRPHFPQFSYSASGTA
# GST-PKBα (full length human protein kinase Bα with N-terminal glutathione S-transferase, from unstimulated 293 cells) [GST: P08515], sequence (P08515 whole entry, looked up): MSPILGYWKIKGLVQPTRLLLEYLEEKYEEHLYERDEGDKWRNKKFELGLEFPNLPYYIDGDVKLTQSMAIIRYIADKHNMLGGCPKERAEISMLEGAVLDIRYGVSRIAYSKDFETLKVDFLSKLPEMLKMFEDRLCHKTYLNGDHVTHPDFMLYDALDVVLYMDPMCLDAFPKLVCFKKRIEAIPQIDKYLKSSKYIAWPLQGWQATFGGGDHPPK
# HA-PKBα (haemagglutinin epitope-tagged human PKBα expressed in 293 cells), sequence (P31749 whole entry, looked up, the tested form may be a part): as the sequence (P31749 whole entry, looked up, stated change not applied, the tested form may be a part) above
substance,measurement,setting,value
"GST-ΔPH-PDK1 (residues 1-450 of human PDK1, lacking the putative C-terminal PH domain)",rate of activation of GST-PKBα by GST-ΔPH-PDK1 compared to full length wild-type GST-PDK1,[1],the rate of activation was reduced about 30-fold compared to full length wild-type GST-PDK1
"PtdIns(3,4,5)P3-dependent protein kinase-1 (PDK1) purified from rabbit skeletal muscle","fold increase in GST-PKBα activity with sn-1,2-dilinoleoyl D-PtdIns(3,4,5)P3",[1],causing a 36-fold increase in GST-PKBα activity
same,"fold increase in GST-PKBα activity with sn-1,2-dipalmitoyl PtdIns(3,4)P2 (lipid 7)",[1],both inositol phospholipids increasing GST-PKBα activity about 6-fold
same,"fold increase in GST-PKBα activity with sn-1,2-dipalmitoyl PtdIns(3,4,5)P3 (lipid 6)",[1],both inositol phospholipids increasing GST-PKBα activity about 6-fold
same,increase in GST-PKBα activity,[1],a >30-fold increase in activity
same,phosphorylation of GST-PKBα (mol 32P per mol protein),[1],to a level approaching 0.7 moles of 32 P/mol protein
same,phosphorylation of GST-PKBα (mol/mol) in the sample used for site mapping,[1],phosphorylated to 0.4-0.6 mol/mol with PDK1
same,specific activity of GST-PKBα reached after phosphorylation by PDK1,[1],reached a specific activity of 80 U/mg
same,specific activity of PDK1 after Mono S (units of GST-PKBα activation per mg),[1],69500 U/mg
same,"specific activity towards GST-PKBα in the presence of PtdIns(3,4,5)P3",[1],PDK1 purified from rabbit skeletal muscle (100 000 U/mg)
same,phosphorylation of immunoprecipitated HA-PKB by PDK1,[2],immunoprecipitated HA-PKB was not phosphorylated effectively by PDK1
same,activation and phosphorylation of GST-ΔPH-PKBα,[3],"also activated and phosphorylated GST-ΔPH-PKBα in a PtdIns(3,4,5)P3 independent manner (data not shown)"
"GST-D223A-PDK1 (full length catalytically inactive human PDK1, Asp223 changed to Ala)",phosphorylation and activation of GST-PKBα,[1],"did not phosphorylate or active GST-PKBα in the presence of PtdCho/PtdSer lipid vesicles containing PtdIns(3,4,5)P3 (data not shown)"

# From patent publication US20050032185
